According to PMC2908537:

Assays:
Test in all cases: SPR; WT or point-mutant CRT immobilised on a biosensor chip at about 500 RU by primary amine coupling, SE 15mer peptides run as analyte; read-out RU, mean ± SEM; 25°C, 10 mM HEPES pH 7.4, 50 mM KCl, 0.5 mM CaCl2, 100 µM ZnCl2, 0.005% surfactant P-20, flow 10 µl/min
[1] = biological target: CRT N279A mutant, 6xHis-tagged (not stated (rabbit or mouse cDNA cloned)) (UniProt P14211)
[2] = biological target: CRT Y254A mutant, 6xHis-tagged (not stated (rabbit or mouse cDNA cloned)) (UniProt P14211)
[3] = biological target: CRT E217A mutant, 6xHis-tagged (not stated (rabbit or mouse cDNA cloned)) (UniProt P14211)
[4] = biological target: CRT D220A mutant, 6xHis-tagged (not stated (rabbit or mouse cDNA cloned)) (UniProt P14211)
[5] = biological target: wild-type CRT, 6xHis-tagged, from the pBAD vector (not stated (rabbit or mouse cDNA cloned)) (UniProt P14211)
[6] = biological target: CRT E223A mutant, 6xHis-tagged (not stated (rabbit or mouse cDNA cloned)) (UniProt P14211)
[7] = biological target: CRT H224A mutant, 6xHis-tagged (not stated (rabbit or mouse cDNA cloned)) (UniProt P14211)

Row | RU [1] | RU [2] | RU [3] | RU [4] | RU [5] | RU [6] | RU [7] | Substance
1 | 106 RU | 66.5 RU | 50.9 RU | 70.1 RU | 71.2 RU | 56.7 RU | 68.2 RU | SE-expressing 15mer synthetic peptide 65-79*0401
2 | 145 RU | 113 RU | 106 RU | 120 RU | 128 RU | 84.6 RU | 128 RU | SE-expressing 15mer synthetic peptide 65-79*0404
